Measured values published in a protein production outcome set (Wang et al. 2014).

Test: label from the status in PepcDB records
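Note: failed if final PepcDB status was selected cloned or expressed and not failed if soluble or beyond.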

With “MRTTHSPATAAGRTLGRVLKAVLSLLVLAAAVAGLPLLLAWVTPAIWASSHDDLTHLLDRQDTGAAFLLLLVAVGWIGWAQFAFCAVRELIAQVGGRSWQAPRRLGASQRAAALLVGSILVLLPTSSALASDAHASPATTEARVPGQAPAPQTAEPDQTLPDSASTPASRTSYTVRATRPAQSLWGIAERELGDGERWREIAALNEGRTMVDGQVFRAHGFLQPGWQLEMPDTAAAAGGIRTQLGRAAPTAEGKNEHVVTVHSGDYLSKIAEEELGDGGEWPRLFKASRGKTQPDGLPAISDPDVIYAGQQVTVPGAQPDPHTPPRDGDNGDEAGSQETTPPATQKPDGKQKPGDDRRDEQAPAPGTTTAPAPESSAPSTPASRPAEQPGQEQGSPSATASATPRPGTSPAPSAAAPSATAEAPGSADSSPATTASETPPPAPAPAPASSPLNLRTVLGAGTLLAAAITGALALRRTLQRRRRTPGEKIAIASETSPAEAKLAAAAEPGGAARLDVALRTLAHQVAHEKAADLPPIRAARIGTRTVEVLPEGLARKPQAPFVAGQAGWWVLPAEAVLLDEETAREVPAPYPGLVTIGSTESGDLLLLNLPQVAALLLDGNPVHITEVCTSLALELGMSPWASEAEIVTIGFGEDLPQLLPTSRIAHMRHARHALRDLSERLLEAHQMPETSHQPYLLLCASTLDADLAWQFADIIDKAQHVPVTLIAPASAAAASFPDAEILNASLSKPQQFDYIGSEITVQRLEHAAYLQITTALAISAQPADPAEGPWEEVPHEPDTPQRPRPLDLAKPTQSGDGEKPVPASPFTAGTGDSEIYPALLAASTDPASLKLLPDPKAPGKAPAEPGTEPAEMTPDGRAPQKAAEATGRPQETPAAEAVGEDTQAQDLHAPEIRVLGPVEVTGVATTGHGPSQARLAALLYFRPGRSADVLCADMDPVSPWSTATLNARLQGLRRALGNDPAGNAYVPRRRSGDDPYELSEAVRCDWARFTQLAQRALPQGTAGLPDLEKALGLIRGRPFGTRPLPWAEPYQQEMSTRIIDVAHTVATYRTPTGPHHDLTAARQAIATGLDVDDSAELLYRDWMRIEHAAGNRAGLHTAITRIQDINRKIDCSLENETEQLINDLLGPTGGRARGR” the protein production was “failed”.
With “MRVAIPAEDDRGIKSNVSKHFGRSRYFVFVDIEGEDVKNVEVVEVPFEEHGPGDLPNFIKDHGAKIVLTYGIGRRAIEYFNSLGISVVTGVYGRISDVIKAFIGGKLKIDYDWKEKIEKEH” the protein production was “not failed”.
For “MRVEIWSDIACPWCYVGKARFEKALAAFPHRDGVEVVHRSFELDPGRAKDDVQPVLTMLTAKYGMSQEQAQAGEDNLGAQAAAEGLAYRTRDRDHGSTFDLHRLLHLAKERGRHEALLDAFYRGNFADERSVFNDDERLVELAVGAGLDAEEVRAVLADPAAYADEVRADEREAAQLGATGVPFFVLDRAYGVSGAQPAEVFTQALTQAWGERTPLKLIDDGGAEACGPDGCAVPGH”, the protein production was “not failed”.
In the case of “MRVHASSPDNKLQVFAIAGTKAILLAMNMDDSLLQGFHGFAFRRRVANGQWEWLTGLKVFVDVFPEGGPVIKKGKVGRFPTNEHPIQSFLWSDYRASPGTKYEFEISAMFGPIAKLEAYYAATLAITTEQEDDGKHGIWFNLGAIASQAFAEKFGNKPLSDADYNDPDNEEVAFLSRGLLEACIEFIRETPAGDALRIVAYEFTFKRILLELKAALERGVDVRIVYHATTANEKAIADAKLPENSKGVQILFKRTRPQTPHNKFIVRLKKGKTPVSVWTGSTNFTPSGFLGQTNVGHKVTDGDIAKIYLQLWEGLKADPDDFDATQAAMALTPNPANVVGTGTTLVFSPRPSPKMLDWYGHRAADAVNAVMFTAAFKVDERILSALADTDTSMRFILLEQPPSAEVQAARRANPADLELSYGAILGKTKMLTEERTGRDATGKKVTKIVPIPNFKIEKWFLKEELERQSGDGFVFYVHTKFLLVDPFSDDPLVCTGSANFSGASLTSNDENMLLIRGDTRVADIYLTEYDRVFRHFYSRDVINDIAKKGGPVNVGKLDPTDKWWQPYYDAKLAKSHKRRMFFEDPKKHWIESATQDGNVFAKEKPLKKPQ”, the protein production is reported as “failed”.
For “MRVKICGITRLEDALLAEALGAFALGFVLAPGSRRRIAPEAARAIGEALGPFVVRVGVFRDQPPEEVLRLMEEARLQVAQLHGEEPPEWAEAVGRFYPVIKAFPLEGPARPEWADYPAQALLLDGKRPGSGEAYPRAWAKPLLATGRRVILAGGIAPENLEEVLALRPYALDLASGVEEAPGVKSAEKLRALFARLASLRMEG”, the protein production was “not failed”.
For “MRVTWEEAGWESVAPFVGRRRLPGWDCTVGLVIGDSAALMIDAGSSLREGALLRAEAQRLLGPGRRVTHLALTHPHFDHVFGAAAFSGVEVFGAVGLDTALAHGREELRADAVRNGLDPRAAEGAADLLVRPRHHVFGEWTLDLGGEVQVLLANVGPGHTAYDLAVLVSSSPEVVFCGDLVEESGEPQAGPDAIPSHWPAALDRLLDLGGQDAVYVPGHGATVDAAFVRTQRDELAARFGIA”, the protein production was “failed”.
With “MRVVALVPGGIGDQILFFPTLDDLKRYYPNAQLDVVVEPRSKAAYRVSKSVNDILTFDYKDRNSLADWGNLVGTIRDREYDVVITVGQSWLVGLFLWLTGIPTRIGYQGKGRSFLTKTVPFKPSQYAAAVYHDLLAPIGITTPTPELEHHHHHH” the protein production was “failed”.
In the case of “MRVVVTGATGFVGQQVVKALSDRGDQVVALVRSPGKAAKQFAGVPRVEWLGYTPKAAGDWFSALEGADAVIHLAGEPLANGRWTPQRKQEIYDSRVVGTQQLVQAIAQCQQRPRVLVSTSAIGYYGTSDTETFVETHAAGNDFLAKVCGDWEAAAQGVTELGVRLVILRFGIVLGEQGALAKLLLPFQLYLGGPLGSGQQWFSWIHQQDLVRLILTAVDQVGMQGVYNATAPEPLRMADFCRILAEVMQRPSWLPVPAPVLQLLLGEGADVVLKGQRVLPERTLATGFEFHYPNAKTALTNLLKPRYTEGSRLEHHHHHH”, the protein production is reported as “not failed”.
For “MRYCRRIGDGHITANSRRMFMVEPAGRKPDPQRRTPHPSVAPADAPWPAHSPVDPAVRRFRGAARYAIWRRGAEWTAVADGPQWSAALAPRIWALRQRQWPVLAVSAPMLVVAGAVALAGVQGWSPVAWTALLVAEVLLRVWVARQAGPWRTAALQRTGWQLVTRLRAISVADAVTTAQIRAGRPQR”, the protein production was “failed”.
In the case of “MRYRNTALFVLLAAVWGSAFVAIKAGVGSPDAPGYFFDAPVLFAAVRYDIAAVLMFAYVAWATDRWRPRGRTEWLAVAVGSAFIIAGYHALLFLGQRGTTSAAAAVIVSLSPVLTTAFARALLADERLSVLGLAGMGVGFLGVVVLSQPTPADIAASRFEALVFAAALCFALGSVLTRRLDTDLPIETMEAWSMAGGALLMHALSLALGETVSGAPPTDALVALGYLAVVASAAGFLVYFDLLGRLGAIEINLVSYVVPVFAALVGVLLLGERVDTPTAAGFLLVFAGFVIIKRRAIRAEIADSYWP”, the protein production is reported as “failed”.
For “MRYWKNSRIKMFEQEDEWISKTQMKKQMNDLQDLGMALTKLSNDTLKKIGLDADLYEAVTAYKKITSNGALKRQAQFIGRLMRDTDPAPIEAFLAKLRGDDAAHNAFLQRVEQARVRLLADDGALTQFMSDFPHADAGKLRTLIRNTKKEQEQNKPPKNFRALFQELKTVMENGDAEI”, the protein production was “failed”.
With “MSAAPGLLHQELSCPLCLQLFDAPVTAECGHSFCRACLGRVAGEPAADGTVLCPCCQAPTRPQALSTNLQLARLVEGLAQVPQGHCEEHLDPLSIYCEQDRALVCGVCASLGSHRGHRLLPAAEAHARLKTQLPQQKLQLQEACMRKEKSVAVLEHQLVEVEETVRQFRGAVGEQLGKMRVFLAALEGSLDCEAERVRGEAGVALRRELGSLNSYLEQLRQMEKVLEEVADKPQTEFLMKYCLVTSRLQKILAESPPPARLDIQLPIISDDFKFQVWRKMFRALMPALEELTFDPSSAHPSLVVSSSGRRVECSEQKAPPAGEDPRQFDKAVAVVAHQQLSEGEHYWEVDVGDKPRWALGVIAAEAPRRGRLHAVPSQGLWLLGLREGKILEAHVEAKEPRALRSPERRPTRIGLYLSFGDGVLSFYDASDADALVPLFAFHERLPRPVYPFFDVCWHDKGKNAQPLLLVGPEGAEA” the protein production was “failed”.
For “MSAARQGVAQARRIVVKVGSSSLTTAAGGLDADRVDALVDVLAKSRSGGEKEIVLVSSGAIAAGLAPLGLRRRPKDLARQQAAASVGQGLLVARYTASCARHGIRVGQVLLTSDDTSRRAHHRNASRTLDKLLAMGALPVVNENDTVATDEIRFGDNDRLAALVAHLVRADLLVLLSDVDGVYDGDPSKPGTSRVAQVHGPQDLAHVEIGSAGRAGVGTGGMVTKIEAARIAAAAGIPVVLTSAVHAADALAGRDTGTYFHPTGKRSADRLLWLQHASTPQGALTLDDGAVRAVVERRKSLLPAGIAAVEGEFTAGDPVELRDSEGRAVARGLVSFDAKEIPQLLGRSTRELARELGPAYEREVVHRDDLVLLQP”, the protein production was “failed”.
For “MSADGSEYGRYFEQLQKVNLTVRLGDTGSFDGTAAITSLKGSLAWLELFGAEQPPPNTLSEGAEVSVSVWTGGALCRCDGRVETLRDDRQFAIRLVGRVRELQRREYF”, the protein production was “not failed”.
With “MSADYPRDLIGYGNNPPHPHWPGDARIALSFVLNYEEGGERCVLHGDKESEAFLSEMVAAQPLQGVRHMSMESLYEYGSRAGVWRLLKLFKRRNVPLTVFAVAMAAQRNPEVIRAMVADGHEICSHGYRWIDYQYMDEAQEREHMLEAIRILTELTGQRPVGWYTGRTGPNTRRLVMEEGGFLYDSDTYDDDLPYWDPASTAEKPHLVIPYTLDTNDMRFTQVQGFNNGEQFFQYLKDAFDVLYEEGATAPKMLSIGLHCRLIGRPARMAALERFIQYAQSHDKVWFARREDIARHWHREHPFQETEA” the protein production was “not failed”.
With “MSAESASQIPKGQVDLLDFIDWSGVECLNQSSSHSLPNALKQGYREDEGLNLESDADEQLLIYIPFNQVIKLHSFAIKGPEEEGPKTVKFFSNKEHMCFSNVNDFPPSDTAELTEENLKGKPVVLKYVKFQNVRSLTIFIEANQSGSEVTKVQKIALYGST” the protein production was “not failed”.
In the case of “MSAGKIDVHGFEKETLFFKNIASGSKGNCTLIWDSTDLIVIDLGITMKKFRDSIKSLDLAGRSISLFISHEHSDHIGGVPTTSKYVDMDVYMRPALSGSFRRKTYEMDGSLVVGNFEIRAFEIPHDAADPVGFSVLWHNRKISVVSDLGKVTDRVIESIRNSDILAFESNHDVEMLRTGSYPEALKRRILSDHGHLSNEQSAEAISRVATDDMRIILTHLSQENNRPEIALNEVKSYLENRNVRYRSIETADQYTGSSLYTLER”, the protein production is reported as “failed”.
For “MSAIRSRRSLLIPVLIVALLHVYIGVRLLPGLPVPMIVHSLAVLWLIASTLLMPAALMARRLSTPWADQLSWVGMMAMGFFSSLLVLTIARDLFLLVTLAIGWRPPGLTGYSALGAIALALAVTVIGFFQARGLAKVKEVDVPIANLPDALHGFTIAQISDIHVGPTIKRPYIDRIVDRVNSLAPDAIAITGDLVDGSVRELSAHTAPFARLSARHGAYVVTGNHEYYSGAEAWIVELRRLGLRVLMNEHVVVERGDASLVLGGVTDFTAGGFIESHRSDPVQALDGAPRDAAARVLLAHQPRTAPAAAAAGFDLQLSGHTHGGQFWPWNLFVPMQQPYVHGLNRHDNLWVYVSRGTGYWGPPKRFGAPSEITLVRLVRG”, the protein production was “failed”.
In the case of “MSALDIPVTPENYTVWYEYFAQSNLDLNRAIDGFLANNVVFTKEVNTSLYKNFIQEKSPEVIENVQIETQILINSLISKITQLNQGTEAFSNTLADFGLQLQSSPDVNTLNQLVDGVIDEMQNLLVNNQTMEQSLNAMGQEVQNLKTEMENLSLAAMTDQLTSLHNRRAYEIAIQDHIHRAEEQHTRCSLLLIDIDRFKVFNDTYGHQVGDKVLAYVALALKQCVRGDDFVARYGGEEFVVLLPNTHFHDALQVAETLRGRISERRLAIGKDKKLSLGAITVSIGLASLQKGDDAETLFSRADKALYEAKSDGRNCVRG”, the protein production is reported as “failed”.
In the case of “MSANDKQYISYNNVHQLCQVSAERIKNFKPDLIIAIGGGGFIPARILRTFLKEPGVPTIRIFAIILSLYEDLNSVGSEVEEVGVKVSRTQWIDYEQCKLDLVGKNVLIVDEVDDTRTTLHYALSELEKDAAEQAKAKGIDTEKSPEMKTNFGIFVLHDKQKPKKADLPAEMLNDKNRYFAAKTVPDKWYAYPWESTDIVFHTRMAIEQGNDIFIPEQEHKQ”, the protein production is reported as “failed”.
